Patent US20230406885A1, “CYCLIC PEPTIDES FOR TRAPPING INTERLEUKIN-1 BETA” (MERCK SHARP & DOHME LLC, priority 2022, published 2023)
*1 amine or outer side, *2 acyl side, *3 side chain or, on linkers, in order; H or OH if unused. [ ]: non-standard residue; d: D form. TyrEtNAc = L-tyrosine O-ethyl acetamide, (S)-3-(4-(2-acetamidoethoxy)phenyl)-2-aminopropanoic acid, CC(=O)NCCOc1ccc(C[C@H](N[*:1])C(=O)[*:2])cc1; 3Pal4Ph4CO2H = (S)-4-(5-(2-amino-2-carboxyethyl)pyridin-2-yl)benzoic acid, O=C([C@H](Cc1ccc(-c2ccc(C(=O)[*:3])cc2)nc1)N[*:1])[*:2]; TyrEtMor = (S)-2-amino-3-(4-(2-morpholinoethoxy)phenyl)propanoic acid, O=C([C@H](Cc1ccc(OCCN2CCOCC2)cc1)N[*:1])[*:2]; Pro(trans-4-NH2) = O=C([C@@H]1C[C@@H](N[*:3])CN1[*:1])[*:2]; Bip(4'-COOH) = N[C@@H](Cc1ccc(-c2ccc(C(=O)O)cc2)cc1)C(=O)O; 1Nal(3S-Me) = C[C@@H](c1cccc2ccccc12)[C@H](N)C(=O)O; Ala(indazol-1-yl) = N[C@@H](Cn1ncc2ccccc21)C(=O)O; Ala(indolin-1-yl) = N[C@@H](CN1CCc2ccccc21)C(=O)O; Phe(4-COOH) = N[C@@H](Cc1ccc(C(=O)O)cc1)C(=O)O; 1Nal = N[C@@H](Cc1cccc2ccccc12)C(=O)O; hTyr = N[C@@H](CCc1ccc(O)cc1)C(=O)O; hPhe = N[C@@H](CCc1ccccc1)C(=O)O; dNMeA = CN[C@H](C)C(=O)O; Dab = NCC[C@H](N)C(=O)O; Dap = NC[C@H](N)C(=O)O; Aib = CC(C)(N)C(=O)O

B1: SEQ ID NO: 13 (peptide)
peptide: cyclo([Bip(4'-COOH)]W[Phe(4-COOH)]G[Pro(trans-4-NH2)][1Nal(3S-Me)]D[dNMeA]G[Bip(4'-COOH)][Ala(indazol-1-yl)][Dap][dA][hTyr])
SMILES: C[C@@H]1C(=O)NCC(=O)N[C@@H](Cc2ccc(-c3ccc(C(=O)O)cc3)cc2)C(=O)N[C@@H](Cn2ncc3ccccc32)C(=O)N[C@@H](CN)C(=O)N[C@H](C)C(=O)N[C@@H](CCc2ccc(O)cc2)C(=O)N[C@@H](Cc2ccc(-c3ccc(C(=O)O)cc3)cc2)C(=O)N[C@@H](Cc2c[nH]c3ccccc23)C(=O)N[C@@H](Cc2ccc(C(=O)O)cc2)C(=O)NCC(=O)N2C[C@H](N)C[C@H]2C(=O)N[C@@H]([C@@H](C)c2cccc3ccccc23)C(=O)N[C@@H](CC(=O)O)C(=O)N1C
B2: SEQ ID NO: 117 (peptide)
peptide: cyclo([TyrEtNAc]W[Phe(4-COOH)]G[Pro(trans-4-NH2)][1Nal(3S-Me)]D[dNMeA]G[Bip(4'-COOH)]W[Dap][Aib][hTyr])
SMILES: CC(=O)NCCOc1ccc(C[C@@H]2NC(=O)[C@H](CCc3ccc(O)cc3)NC(=O)C(C)(C)NC(=O)[C@H](CN)NC(=O)[C@H](Cc3c[nH]c4ccccc34)NC(=O)[C@H](Cc3ccc(-c4ccc(C(=O)O)cc4)cc3)NC(=O)CNC(=O)[C@@H](C)N(C)C(=O)[C@H](CC(=O)O)NC(=O)[C@H]([C@@H](C)c3cccc4ccccc34)NC(=O)[C@@H]3C[C@@H](N)CN3C(=O)CNC(=O)[C@H](Cc3ccc(C(=O)O)cc3)NC(=O)[C@H](Cc3c[nH]c4ccccc34)NC2=O)cc1
B3: SEQ ID NO: 16 (peptide)
peptide: cyclo([Bip(4'-COOH)]W[Phe(4-COOH)]G[Pro(trans-4-NH2)][1Nal(3S-Me)]D[dNMeA]G[Bip(4'-COOH)][1Nal][Dab][Aib][hTyr])
SMILES: C[C@@H]1C(=O)NCC(=O)N[C@@H](Cc2ccc(-c3ccc(C(=O)O)cc3)cc2)C(=O)N[C@@H](Cc2cccc3ccccc23)C(=O)N[C@@H](CCN)C(=O)NC(C)(C)C(=O)N[C@@H](CCc2ccc(O)cc2)C(=O)N[C@@H](Cc2ccc(-c3ccc(C(=O)O)cc3)cc2)C(=O)N[C@@H](Cc2c[nH]c3ccccc23)C(=O)N[C@@H](Cc2ccc(C(=O)O)cc2)C(=O)NCC(=O)N2C[C@H](N)C[C@H]2C(=O)N[C@@H]([C@@H](C)c2cccc3ccccc23)C(=O)N[C@@H](CC(=O)O)C(=O)N1C
B4: SEQ ID NO: 115 (peptide)
peptide: cyclo([TyrEtNAc]W[Phe(4-COOH)]G[Pro(trans-4-NH2)][1Nal(3S-Me)]D[dNMeA]G[Bip(4'-COOH)]W[Dab][dA][hPhe])
SMILES: CC(=O)NCCOc1ccc(C[C@@H]2NC(=O)[C@H](CCc3ccccc3)NC(=O)[C@@H](C)NC(=O)[C@H](CCN)NC(=O)[C@H](Cc3c[nH]c4ccccc34)NC(=O)[C@H](Cc3ccc(-c4ccc(C(=O)O)cc4)cc3)NC(=O)CNC(=O)[C@@H](C)N(C)C(=O)[C@H](CC(=O)O)NC(=O)[C@H]([C@@H](C)c3cccc4ccccc34)NC(=O)[C@@H]3C[C@@H](N)CN3C(=O)CNC(=O)[C@H](Cc3ccc(C(=O)O)cc3)NC(=O)[C@H](Cc3c[nH]c4ccccc34)NC2=O)cc1
B5: SEQ ID NO: 17 (peptide)
peptide: cyclo([Bip(4'-COOH)]W[Phe(4-COOH)]G[Pro(trans-4-NH2)][1Nal(3S-Me)]D[dNMeA]G[Bip(4'-COOH)][1Nal][Dap][Aib]G)
SMILES: C[C@@H]1C(=O)NCC(=O)N[C@@H](Cc2ccc(-c3ccc(C(=O)O)cc3)cc2)C(=O)N[C@@H](Cc2cccc3ccccc23)C(=O)N[C@@H](CN)C(=O)NC(C)(C)C(=O)NCC(=O)N[C@@H](Cc2ccc(-c3ccc(C(=O)O)cc3)cc2)C(=O)N[C@@H](Cc2c[nH]c3ccccc23)C(=O)N[C@@H](Cc2ccc(C(=O)O)cc2)C(=O)NCC(=O)N2C[C@H](N)C[C@H]2C(=O)N[C@@H]([C@@H](C)c2cccc3ccccc23)C(=O)N[C@@H](CC(=O)O)C(=O)N1C
B6: SEQ ID NO: 12 (peptide)
peptide: cyclo([Bip(4'-COOH)]W[Phe(4-COOH)]G[Pro(trans-4-NH2)][1Nal(3S-Me)]D[dNMeA]G[3Pal4Ph4CO2H]W[Dap][dA][hTyr])
SMILES: C[C@@H]1C(=O)NCC(=O)N[C@@H](Cc2ccc(-c3ccc(C(=O)O)cc3)nc2)C(=O)N[C@@H](Cc2c[nH]c3ccccc23)C(=O)N[C@@H](CN)C(=O)N[C@H](C)C(=O)N[C@@H](CCc2ccc(O)cc2)C(=O)N[C@@H](Cc2ccc(-c3ccc(C(=O)O)cc3)cc2)C(=O)N[C@@H](Cc2c[nH]c3ccccc23)C(=O)N[C@@H](Cc2ccc(C(=O)O)cc2)C(=O)NCC(=O)N2C[C@H](N)C[C@H]2C(=O)N[C@@H]([C@@H](C)c2cccc3ccccc23)C(=O)N[C@@H](CC(=O)O)C(=O)N1C
B7: SEQ ID NO: 15 (peptide)
peptide: cyclo([Bip(4'-COOH)]W[Phe(4-COOH)]G[Pro(trans-4-NH2)][1Nal(3S-Me)]D[dNMeA]G[Bip(4'-COOH)][1Nal][Dab][Aib]G)
SMILES: C[C@@H]1C(=O)NCC(=O)N[C@@H](Cc2ccc(-c3ccc(C(=O)O)cc3)cc2)C(=O)N[C@@H](Cc2cccc3ccccc23)C(=O)N[C@@H](CCN)C(=O)NC(C)(C)C(=O)NCC(=O)N[C@@H](Cc2ccc(-c3ccc(C(=O)O)cc3)cc2)C(=O)N[C@@H](Cc2c[nH]c3ccccc23)C(=O)N[C@@H](Cc2ccc(C(=O)O)cc2)C(=O)NCC(=O)N2C[C@H](N)C[C@H]2C(=O)N[C@@H]([C@@H](C)c2cccc3ccccc23)C(=O)N[C@@H](CC(=O)O)C(=O)N1C
B8: SEQ ID NO: 120 (peptide)
peptide: cyclo([TyrEtNAc]W[Phe(4-COOH)]G[Pro(trans-4-NH2)][1Nal(3S-Me)]D[dNMeA]G[Bip(4'-COOH)]W[Dap][dA][TyrEtMor])
SMILES: CC(=O)NCCOc1ccc(C[C@@H]2NC(=O)[C@H](Cc3ccc(OCCN4CCOCC4)cc3)NC(=O)[C@@H](C)NC(=O)[C@H](CN)NC(=O)[C@H](Cc3c[nH]c4ccccc34)NC(=O)[C@H](Cc3ccc(-c4ccc(C(=O)O)cc4)cc3)NC(=O)CNC(=O)[C@@H](C)N(C)C(=O)[C@H](CC(=O)O)NC(=O)[C@H]([C@@H](C)c3cccc4ccccc34)NC(=O)[C@@H]3C[C@@H](N)CN3C(=O)CNC(=O)[C@H](Cc3ccc(C(=O)O)cc3)NC(=O)[C@H](Cc3c[nH]c4ccccc34)NC2=O)cc1
B9: SEQ ID NO: 116 (peptide)
peptide: cyclo([TyrEtNAc]W[Phe(4-COOH)]G[Pro(trans-4-NH2)][1Nal(3S-Me)]D[dNMeA]G[Bip(4'-COOH)]W[Dab][dA][hTyr])
SMILES: CC(=O)NCCOc1ccc(C[C@@H]2NC(=O)[C@H](CCc3ccc(O)cc3)NC(=O)[C@@H](C)NC(=O)[C@H](CCN)NC(=O)[C@H](Cc3c[nH]c4ccccc34)NC(=O)[C@H](Cc3ccc(-c4ccc(C(=O)O)cc4)cc3)NC(=O)CNC(=O)[C@@H](C)N(C)C(=O)[C@H](CC(=O)O)NC(=O)[C@H]([C@@H](C)c3cccc4ccccc34)NC(=O)[C@@H]3C[C@@H](N)CN3C(=O)CNC(=O)[C@H](Cc3ccc(C(=O)O)cc3)NC(=O)[C@H](Cc3c[nH]c4ccccc34)NC2=O)cc1
B10: SEQ ID NO: 118 (peptide)
peptide: cyclo([TyrEtNAc]W[Phe(4-COOH)]G[Pro(trans-4-NH2)][1Nal(3S-Me)]D[dNMeA]G[Bip(4'-COOH)]W[Dap][dA]A)
SMILES: CC(=O)NCCOc1ccc(C[C@@H]2NC(=O)[C@H](C)NC(=O)[C@@H](C)NC(=O)[C@H](CN)NC(=O)[C@H](Cc3c[nH]c4ccccc34)NC(=O)[C@H](Cc3ccc(-c4ccc(C(=O)O)cc4)cc3)NC(=O)CNC(=O)[C@@H](C)N(C)C(=O)[C@H](CC(=O)O)NC(=O)[C@H]([C@@H](C)c3cccc4ccccc34)NC(=O)[C@@H]3C[C@@H](N)CN3C(=O)CNC(=O)[C@H](Cc3ccc(C(=O)O)cc3)NC(=O)[C@H](Cc3c[nH]c4ccccc34)NC2=O)cc1
B11: SEQ ID NO: 14 (peptide)
peptide: cyclo([Bip(4'-COOH)]W[Phe(4-COOH)]G[Pro(trans-4-NH2)][1Nal(3S-Me)]D[dNMeA]G[Bip(4'-COOH)][Ala(indolin-1-yl)][Dap][dA][hTyr])
SMILES: C[C@@H]1C(=O)NCC(=O)N[C@@H](Cc2ccc(-c3ccc(C(=O)O)cc3)cc2)C(=O)N[C@@H](CN2CCc3ccccc32)C(=O)N[C@@H](CN)C(=O)N[C@H](C)C(=O)N[C@@H](CCc2ccc(O)cc2)C(=O)N[C@@H](Cc2ccc(-c3ccc(C(=O)O)cc3)cc2)C(=O)N[C@@H](Cc2c[nH]c3ccccc23)C(=O)N[C@@H](Cc2ccc(C(=O)O)cc2)C(=O)NCC(=O)N2C[C@H](N)C[C@H]2C(=O)N[C@@H]([C@@H](C)c2cccc3ccccc23)C(=O)N[C@@H](CC(=O)O)C(=O)N1C
B12: SEQ ID NO: 119 (peptide)
peptide: cyclo([TyrEtNAc]W[Phe(4-COOH)]G[Pro(trans-4-NH2)][1Nal(3S-Me)]D[dNMeA]G[Bip(4'-COOH)]W[Dap][dA][hTyr])
SMILES: CC(=O)NCCOc1ccc(C[C@@H]2NC(=O)[C@H](CCc3ccc(O)cc3)NC(=O)[C@@H](C)NC(=O)[C@H](CN)NC(=O)[C@H](Cc3c[nH]c4ccccc34)NC(=O)[C@H](Cc3ccc(-c4ccc(C(=O)O)cc4)cc3)NC(=O)CNC(=O)[C@@H](C)N(C)C(=O)[C@H](CC(=O)O)NC(=O)[C@H]([C@@H](C)c3cccc4ccccc34)NC(=O)[C@@H]3C[C@@H](N)CN3C(=O)CNC(=O)[C@H](Cc3ccc(C(=O)O)cc3)NC(=O)[C@H](Cc3c[nH]c4ccccc34)NC2=O)cc1

The binders below were run against Recombinant human IL-1β (BioLegend 579404) (human, UniProt P01584 117-269) (assay: cell-based or functional assay).
For B1, the “MRC5 IC50” value was 0.031 nM.
In the case of B2, the “MRC5 IC50” value is reported as 0.16 nM.
With B3 the “MRC5 IC50” value was 0.175 nM.
With B4 the “MRC5 IC50” value was 0.085 nM.
For B5, the “MRC5 IC50” value was 0.222 nM.
B6 was tested, and the “MRC5 IC50” value was 0.0551 nM.
For B7, the “MRC5 IC50” value was 0.653 nM.
B8 was tested, and the “MRC5 IC50” value was 0.86 nM.
For B9, the “MRC5 IC50” value was 0.492 nM.
For B10, the “MRC5 IC50” value was 0.973 nM.
For B11, the “MRC5 IC50” value was 0.0297 nM.
B12 was tested, and the “MRC5 IC50” value was 0.0602 nM.
